# Reference: patent publication US20250002588A1 (DIAGONAL THERAPEUTICS, published 2025)
# Residue numbers refer to the chain shown, from its start.
# B1: PRO006 (bispecific antibody)
# chain: EVQLLESGGGLVQPGGSLRLSCAASGFTFSDYYMTWIRQAPGKGLEWVSSISGGSTYYADSRKGRFTISRDNSENTLYLQMNSLRAEDTAVYYCARDFGVAGWFGQYGMDVWGQGTLVTVSSGGGGSGGGGSGGGGSQSVLTQPPSASGTPGQRVTISCTGSSSNIGAGYDVHWYQQLPGTAPKLLIYRSNQRPSGVPDRFSGSKSGTSASLAISGLRSEDEADYYCSSYAGNYNLVFGGGTKLTVLDKTHTCPPCPAPEAAGAPSVFLFPPKPKDTLMISRTPEVTCVVVDVSHEDPEVKFNWYVDGVEVHNAKTKPREEQYNSTYRVVSVLTVLHQDWLNGKEYKCKVSNKALPAPIEKTISKAKGQPREPQVYTLPPSRDELTKNQVSLTCLVKGFYPSDIAVEWESNGQPENNYKTTPPVLDSDGSFFLYSKLTVDKSRWQQGNVFSCSVMHEALHNHYTQKSLSLSPGGGGGSGGGGSEVQLLESGGGLVQPGGSLRLSCAASGFTFSSYAMSWVRQAPGKGLEWVANINQDGSEKNYVDSMRGRFTISRDNSKNTLYLQMNSLRAEDTAVYYCAREFDYWGQGTLVTVTSSGGGGSGGGGSGGGGSQSVLAQPPSASGTPGQRVTISCSGSSSNIGSNYVYWYQQLPGTAPKLLIYGNNKRPSGVPDRFSGSKSGTSASLAISGLRSEDEADYYCAAWDDSLNGRVFGGGTKLTVL
# B2: PRO005 (bispecific antibody)
# chain: EVQLLESGGGLVQPGGSLRLSCAASGFTFSSYAMSWVRQAPGKGLEWVANINQDGSEKNYVDSMRGRFTISRDNSKNTLYLQMNSLRAEDTAVYYCAREFDYWGQGTLVTVTSSGGGGSGGGGSGGGGSQSVLAQPPSASGTPGQRVTISCSGSSSNIGSNYVYWYQQLPGTAPKLLIYGNNKRPSGVPDRFSGSKSGTSASLAISGLRSEDEADYYCAAWDDSLNGRVFGGGTKLTVLDKTHTCPPCPAPEAAGAPSVFLFPPKPKDTLMISRTPEVTCVVVDVSHEDPEVKFNWYVDGVEVHNAKTKPREEQYNSTYRVVSVLTVLHQDWLNGKEYKCKVSNKALPAPIEKTISKAKGQPREPQVYTLPPSRDELTKNQVSLTCLVKGFYPSDIAVEWESNGQPENNYKTTPPVLDSDGSFFLYSKLTVDKSRWQQGNVFSCSVMHEALHNHYTQKSLSLSPGGGGGSGGGGSEVQLLESGGGLVQPGGSLRLSCAASGFTFSDYYMTWIRQAPGKGLEWVSSISGGSTYYADSRKGRFTISRDNSENTLYLQMNSLRAEDTAVYYCARDFGVAGWFGQYGMDVWGQGTLVTVSSGGGGSGGGGSGGGGSQSVLTQPPSASGTPGQRVTISCTGSSSNIGAGYDVHWYQQLPGTAPKLLIYRSNQRPSGVPDRFSGSKSGTSASLAISGLRSEDEADYYCSSYAGNYNLVFGGGTKLTVL
# B3: DGL893 (bispecific antibody)
# chain 1: not shown
# chain 2: EVQLLESGGGLVQPGGSLRLSCAASGFTFSDYYMTWIRQAPGKGLEWVSSISGGSTYYADSRKGRFTISRDNSENTLYLQMNSLRAEDTAVYYCARDFGVSGWFGQYGMDVWGQGTLVTVSSGGGGSGGGGSGGGGSQSVLTQPPSASGTPGQRVTISCTGSSSNIGAGYDVHWYQQLPGTAPKLLIYRSNQRPSGVPDRFSGSKSGTSASLAISGLRSEDEADYYCSSYAGNYNLVFGGGTKLTVLDKTHTCPPCPAPEAAGAPSVFLFPPKPKDTLMISRTPEVTCVVVDVSHEDPEVKFNWYVDGVEVHNAKTKPREEQYNSTYRVVSVLTVLHQDWLNGKEYKCKVSNKALPAPIEKTISKAKGQPREPQVCTLPPSRDELTKNQVSLSCAVKGFYPSDIAVEWESNGQPENNYKTTPPVLDSDGSFFLVSKLTVDKSRWQQGNVFSCSVMHEALHNHYTQKSLSLSPGWSHPQFEK
# B4: DGL902 (bispecific antibody)
# chain 1: not shown
# chain 2: B3 chain 2 with Y33W, S101A
# B5: DGL918 (bispecific antibody)
# chain 1: not shown
# chain 2: B3 chain 2 with Y33W, S55T
# B6: DGL906 (bispecific antibody)
# chain 1: not shown
# chain 2: B3 chain 2 with Y32S, T35S, R62V, S101A, W103Y
# B7: DGL913 (bispecific antibody)
# chain 1: not shown
# chain 2: B3 chain 2 with Y32S, T35S, R62V, S101A, W103Y
# B8: DGL895 (bispecific antibody)
# chain 1: not shown
# chain 2: B3 chain 2 with S55T, S101A
# B9: DGL911 (bispecific antibody)
# chain 1: not shown
# chain 2: B3 chain 2 with Y33W, S55T
# B10: DGL905 (bispecific antibody)
# chain 1: not shown
# chain 2: B3 chain 2 with T35N, R62V, S101A, Y107F
# B11: DGL907 (bispecific antibody)
# chain 1: not shown
# chain 2: B3 chain 2 with T35N, R62V, S101A, Q106Y
# B12: DGL901 (bispecific antibody)
# chain 1: not shown
# chain 2: B3 chain 2
# B13: DGL908 (bispecific antibody)
# chain 1: not shown
# chain 2: B3 chain 2
# B14: DGL896 (bispecific antibody)
# chain 1: not shown
# chain 2: B3 chain 2 with Y33W, S55T
# B15: DGL917 (bispecific antibody)
# chain 1: not shown
# chain 2: B3 chain 2 with S55T, S101A
# B16: DGL910 (bispecific antibody)
# chain 1: not shown
# chain 2: B3 chain 2 with S55T, S101A
# B17: DGL916 (bispecific antibody)
# chain 1: not shown
# chain 2: B3 chain 2 with Y33W, S101A
# B18: DGL903 (bispecific antibody)
# chain 1: not shown
# chain 2: B3 chain 2 with S55T, S101A
# B19: DGL897 (bispecific antibody)
# chain 1: not shown
# chain 2: B3 chain 2
# B20: DGL898 (bispecific antibody)
# chain 1: not shown
# chain 2: B3 chain 2 with Y33W, S101A
# B21: DGL900 (bispecific antibody)
# chain 1: not shown
# chain 2: B3 chain 2 with Y33W, S55T
# B22: DGL899 (bispecific antibody)
# chain 1: not shown
# chain 2: B3 chain 2 with S55T, S101A
# B23: DGL894 (bispecific antibody)
# chain 1: not shown
# chain 2: B3 chain 2 with Y33W, S101A
# B24: DGL909 (bispecific antibody)
# chain 1: not shown
# chain 2: B3 chain 2 with Y33W, S101A
# B25: DGL915 (bispecific antibody)
# chain 1: not shown
# chain 2: B3 chain 2
# B26: DGL914 (bispecific antibody)
# chain 1: not shown
# chain 2: B3 chain 2 with T35N, R62V, S101A, Q106Y
# B27: DGL904 (bispecific antibody)
# chain 1: not shown
# chain 2: B3 chain 2 with Y33W, S55T
# B28: DGL912 (bispecific antibody)
# chain 1: not shown
# chain 2: B3 chain 2 with T35N, R62V, S101A, Y107F
# Molecular target: T1, ALK-1/BMPR-2 receptor pair of the PathHunter U2Os dimerization cells (DiscoverX 93-0962C3) (UniProt P37023 22-503; Q13873 27-1038)
# Assay: cell-based or functional assay
% Emax BMP9,EC50,Emax (RLU),Binder
35%,0.1 nM,929000 RLU,B1
35%,0.075 nM,931000 RLU,B2

# Molecular target: T1, ALK-1/BMPR-2 receptor pair of the …
# Assay: cell-based or functional assay
# Remark: another data set of the same source
% Emax BMP9,Emax (RLU),Binder
20%,552000 RLU,B3
19%,529000 RLU,B4
46%,1.24e+06 RLU,B5
-2%,-41100 RLU,B6
0%,8420 RLU,B7
26%,715000 RLU,B8
19%,521000 RLU,B9
36%,972000 RLU,B10
12%,321000 RLU,B11
29%,800000 RLU,B12
45%,1.23e+06 RLU,B13
10%,282000 RLU,B14
17%,469000 RLU,B15
49%,1.33e+06 RLU,B16
41%,1.11e+06 RLU,B17
34%,918000 RLU,B18
26%,701000 RLU,B19
19%,509000 RLU,B20
12%,333000 RLU,B21
30%,812000 RLU,B22
14%,383000 RLU,B23
24%,663000 RLU,B24
5%,124000 RLU,B25
20%,557000 RLU,B26
17%,475000 RLU,B27
33%,910000 RLU,B28
